Source: article PMC8260561 (Cell Reports, 2021)

Target: S1-mFc (SARS-CoV-2 S1 subunit, fusion protein with murine Fc part) (SARS-CoV-2 Wuhan-Hu-1 (MN908947), UniProt P0DTC2)
Assay: ELISA

B1: STE90-C11 IgG (human IgG1 with silenced Fc) (antibody, V domains shown)
VH: QVQLVESGGGLVQPGGSLRLSCAASGLTVSSNYMSWVRQAPGKGLEWVSVIYSGGSTYYADSVKGRFTISRDDSKNTLYLQMNSLRAEDTAVYYCARDVADAFDIWGQGTMVTVSS
VL: DIVMTQSPSFLSASVGDRVTITCRASQGISSYLAWYQQKPGKAPKLLIYAASTLQSGVPSRFSGSGSGTEFTLTISSLQPEDFATYYCQQLNSYPPFTFGPGTKVDIK
Question: Which EC50 does the source give for B1 here?
Answer: 0.2 nM
